Where a chain is given by its changes, count along the chain named.
Biological target: T1, wild type Cre recombinase, P06956
T1 chain: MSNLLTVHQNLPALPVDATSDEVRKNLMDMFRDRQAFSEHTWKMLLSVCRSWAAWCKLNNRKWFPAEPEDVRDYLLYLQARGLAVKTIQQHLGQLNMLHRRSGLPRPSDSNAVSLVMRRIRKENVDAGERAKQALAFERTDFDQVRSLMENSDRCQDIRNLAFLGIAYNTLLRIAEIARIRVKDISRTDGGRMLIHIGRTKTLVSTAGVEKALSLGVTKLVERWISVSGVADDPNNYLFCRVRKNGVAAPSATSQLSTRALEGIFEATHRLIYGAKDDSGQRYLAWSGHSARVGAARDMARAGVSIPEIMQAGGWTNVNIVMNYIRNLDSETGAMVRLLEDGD

B1: Cre mutant CM2 [C2(+/-)#4] (protein)
chain: T1 chain with I174A, T258L, R259S, E262H, E266G
With B1 the “catalytic efficiency of recombination of the asymmetric loxP-M7 substrate (wt Cre-CM2 mixture compared with CM1)” value was “both the wt Cre-CM2 mixture and CM1 demonstrated comparable catalytic efficiency”, the “recombination extent after 30 min (loxP-M7 substrate, wt Cre-CM2 mixture, 30 nM enzyme)” value was “approximately 20% after 30 min” and the “recombination extent after 90 min (loxP-M7 substrate, wt Cre-CM2 mixture, 30 nM enzyme)” value was 25-30% after 90 min. For the same protein, the “recombination rate (observed rate constant, loxP-M7 substrate, wt Cre-CM2 mixture, 30 nM enzyme)” value was 0.034 and 0.048 min-1, respectively and the “substrate recombination in 1 h (in vitro recombination of loxP-M7 DNA substrate, equal wt Cre-CM2 mixture at 30 nM and 60 nM total enzyme)” value was “approximately 35% substrate recombination in 1 h”.
